Test results as given in patent US20220047716A1 (SUTRO BIOPHARMA, published 2022).

Assays:
Test in all cases: cell-based or functional assay
[1] = molecular target: human folate receptor beta (hFolRβ) (human, UniProt P14207 17-230)
[2] = molecular target: human folate receptor alpha (hFolRα) on cells (human, UniProt P15328 25-234)
[3] = molecular target: Human folate receptor alpha (hFOLR1) (human, UniProt P15328 25-234)
[4] = molecular target: T1, human folate receptor alpha (hFOLR1) on cells (human, UniProt P15328 25-234)
T1 sequence (P15328 25-234 limits assumed): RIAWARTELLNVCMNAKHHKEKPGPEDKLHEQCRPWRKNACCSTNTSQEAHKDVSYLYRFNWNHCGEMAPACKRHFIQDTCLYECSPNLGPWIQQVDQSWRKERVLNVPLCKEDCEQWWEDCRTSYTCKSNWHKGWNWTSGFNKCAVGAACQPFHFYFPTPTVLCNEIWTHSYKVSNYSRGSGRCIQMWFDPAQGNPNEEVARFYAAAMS

[5] = molecular target: T1, human folate receptor alpha (hFOLR1) on …; remark: listed apart in the source

Chain of Human folate receptor alpha (hFOLR1) (P15328 25-234 limits assumed): as above
Chain of human folate receptor alpha (hFolRα) on cells (P15328 25-234 limits assumed): as above
Chain of human folate receptor beta (hFolRβ) (P14207 17-230): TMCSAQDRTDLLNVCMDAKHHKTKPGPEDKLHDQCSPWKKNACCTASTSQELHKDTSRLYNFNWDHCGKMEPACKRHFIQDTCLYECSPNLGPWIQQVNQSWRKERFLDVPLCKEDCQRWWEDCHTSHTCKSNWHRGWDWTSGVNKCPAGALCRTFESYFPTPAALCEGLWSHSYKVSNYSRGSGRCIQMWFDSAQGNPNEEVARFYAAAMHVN

Row | Binder | Cell Killing (Igrov1) EC50 [3] [nM] | Cell Killing (Igrov1) Span [3] [%] | also measured
1 | ADC Molecule 4 (1848-H01 FolRα antibody, Y180/F404, Conjugate P) (antibody, V domains shown, non-natural amino acids at HC-Y180 and HC-F404, each conjugated to the cleavable hemiasterlin linker-drug (Conjugate P); both sites lie in the constant region, outside the VH entry) VH: EVQLVESGGGLVQPGGSLRLSCAASGFNIRTQSIHWVRQAPGKGLEWIGDIFPIDGITDYADSVKGRFTISADTSKNTAYLQMNSLRAEDTAVYYCARGSWSWPSGMDYYLDYWGQGTLVTVSS VL: not shown | – | – | cytotoxic activity on 293T cells expressing FolRβ, EC50 [1]: ~100 nM; cytotoxic activity on 293T cells expressing FolRα, EC50 [2]: < 10 nM
2 | ADC Molecule 4 (antibody 1848-H01, Y180/F404, Conjugate P) (antibody, V domains shown, non-natural amino acid (para-azidomethyl-L-phenylalanine, pAMF) at heavy chain constant sites HC-Y180 and HC-F404 (EU numbering), each conjugated to cleavable hemiasterlin linker-drug (Conjugate P); DAR 3.73) VH: EVQLVESGGGLVQPGGSLRLSCAASGFNIRTQSIHWVRQAPGKGLEWIGDIFPIDGITDYADSVKGRFTISADTSKNTAYLQMNSLRAEDTAVYYCARGSWSWPSGMDYYLDYWGQGTLVTVSS VL: not shown | 0.083 | 80 | –
3 | ADC Molecule 24 (antibody 1848-H01 V262E, Y180/F404, Conjugate Q) (antibody, V domains shown, non-natural amino acid (pAMF) at heavy chain constant sites HC-Y180 and HC-F404 (EU numbering), each conjugated to cleavable (ValAla) hemiasterlin linker-drug (Conjugate Q); DAR 3.76) VH: EVQLVESGGGLVQPGGSLRLSCAASGFNIRTQSIHWVRQAPGKGLEWIGDIFPIDGITDYADSVKGRFTISADTSKNTAYLQMNSLRAEDTAVYYCARGSWSWPSGMDYYLDYWGQGTLVTVSS VL: not shown | 0.19 | 56 | –
4 | ADC Molecule 4 (antibody, V domains shown, non-natural amino acids at HC-Y180 and HC-F404 (constant region, outside this VH entry) linked to cleavable hemiasterlin linker-drug (Conjugate P), DAR about 3.7-3.8) VH: EVQLVESGGGLVQPGGSLRLSCAASGFNIRTQSIHWVRQAPGKGLEWIGDIFPIDGITDYADSVKGRFTISADTSKNTAYLQMNSLRAEDTAVYYCARGSWSWPSGMDYYLDYWGQGTLVTVSS VL: not shown | – | – | cytotoxic activity on Igrov1 cells in the presence of 0.5 µM un-conjugated 1848-H01, EC50 [4]: > 33 nM; cytotoxic activity on OVCAR3 cells in the presence of 0.5 µM un-conjugated 1848-H01, EC50 [4]: > 33 nM
5 | ADC Molecule 20 (antibody 1848-H01, Y180/F404, Conjugate Q) (antibody, V domains shown, non-natural amino acid (pAMF) at heavy chain constant sites HC-Y180 and HC-F404 (EU numbering), each conjugated to cleavable (ValAla) hemiasterlin linker-drug (Conjugate Q); DAR 3.81) VH: EVQLVESGGGLVQPGGSLRLSCAASGFNIRTQSIHWVRQAPGKGLEWIGDIFPIDGITDYADSVKGRFTISADTSKNTAYLQMNSLRAEDTAVYYCARGSWSWPSGMDYYLDYWGQGTLVTVSS VL: not shown | 0.13 | 70 | –
6 | ADC Molecule 23 (antibody 1848-H01 V262E, Y180/F404, Conjugate P) (antibody, V domains shown, non-natural amino acid (pAMF) at heavy chain constant sites HC-Y180 and HC-F404 (EU numbering), each conjugated to cleavable hemiasterlin linker-drug (Conjugate P); DAR 3.57) VH: EVQLVESGGGLVQPGGSLRLSCAASGFNIRTQSIHWVRQAPGKGLEWIGDIFPIDGITDYADSVKGRFTISADTSKNTAYLQMNSLRAEDTAVYYCARGSWSWPSGMDYYLDYWGQGTLVTVSS VL: not shown | 0.088 | 72 | –
7 | SRP2060-A06 (antibody, V domains shown) VH: EVQLLESGGGLVQPGGSLRLSCAFSGFSLSTFGMGVGWVRQAPGKGLEWVGHIWWDDDKYYYPALKGRFTISKDNSKNTVYLQMNSLRAEDTAVYYCGRNHFPHYYGSSHWYFDVWGQGTTVTVSS VL: DIQMTQSPSTLSASVGDRVTITCKASQDINSYLSWYQQKPGKAPKLLIYRANRLVDGVPSRFSGSGSGTEFTLTISSLQPDDFATYYCLQYDEFPYTFGGGTKVEIK | – | – | Igrov 2° Antibody Cell Killing, Nb-SC239, EC50 [5]: 0.013 nM; Igrov 2° Antibody Cell Killing, Nb-SC239, span [5]: 66%
